Each block holds one binder with its values, some of them ahead of it. Where no end group is shown, it is not given here.
Target: T1, 6His-14-3-3ω recombinant protein (Arabidopsis thaliana, UniProt Q01525 1-259)
T1 construct: 14-3-3ω (GF14/omega) of Arabidopsis thaliana; also called At14-3-3ω; GF14/omega; source: E. coli, purified (Ni-NTA)
T1 sequence (looked up): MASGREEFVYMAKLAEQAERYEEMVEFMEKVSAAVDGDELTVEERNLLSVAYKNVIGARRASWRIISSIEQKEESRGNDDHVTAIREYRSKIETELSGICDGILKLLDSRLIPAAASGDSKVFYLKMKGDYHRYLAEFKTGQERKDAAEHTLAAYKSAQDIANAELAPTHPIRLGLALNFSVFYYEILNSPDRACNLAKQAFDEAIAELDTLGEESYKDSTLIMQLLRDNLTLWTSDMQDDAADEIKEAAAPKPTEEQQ
Experiment: quartz crystal microbalance; GST fusion peptide coated on the sensor to saturation, 6His-14-3-3ω injected into PBS; AFFINIX QN μ, Kd by AQUA software
Settings: both partners purified

Kd: 1770 nM
B1: GST-GLR3.7 P0 recombinant fusion peptide (nonphosphorylated) (peptide)
chain: RYRRMERTSSMPRA
modifications: also: GST fusion
notes: C-terminal fragment of AtGLR3.7 holding Thr-858, Ser-859 and Ser-860; Cloned between AscI and NotI of the NRV vector (GST, RFP, Strep-tags; Curran et al., 2011) with the amino acids APG after the restriction site; fusion protein about 55 kD; also called G-P0; G-GLR3.7 P0; not shown: RFP (from the NRV vector)

Kd: 2.31 nM
B2: Phosphorylated GST-GLR3.7 P0 recombinant fusion peptide (peptide)
chain: RYRRMERTSSMPRA
modifications: also: phosphorylated, site not given here, fused to GST
notes: C-terminal fragment of AtGLR3.7 holding Thr-858, Ser-859 and Ser-860; also called G-P0-phosphorylated fusion peptide; phosphorylated G-GLR3.7 P0; not shown: RFP (from the NRV vector)

Source: article PMC6779109, “The Glutamate Receptor-Like Protein GLR3.7 Interacts With 14-3-3ω and Participates in Salt Stress Response in Arabidopsis thaliana” (Frontiers in Plant Science, 2019)
